From paper PMC5705219, “A map of human PRDM9 binding provides evidence for novel behaviors of PRDM9 and other zinc-finger proteins in meiosis” (eLife, 2017) come the findings set out here.

The series deals with the molecule itself. The experiment in a line: co-IP; direct competition: HEK293T transfected with three constructs, Human and Chimp prey with the same epitope tag and Human or Chimp bait with the complementary tag; IP against the bait tag, western against the prey tag; both directions of HA/V5 tagging.

B1: full-length human PRDM9 (B allele), C-terminally tagged with HA or V5 (natural protein)
chain: not shown
notes: synthetic cDNA of the full-length 2,685 bp transcript with 218 synonymous base changes in the zinc-finger exon; An HA and a V5 version were made; tag cassette is linker-TwinStrep-linker-HA/V5-linker-P2A between PRDM9 and YFP; also called Human-HA; Human-V5; source: HEK293T, transfected (pLENTI CMV/TO Puro DEST, FuGENE-HD), in lysate; not shown: HA or V5, C-terminal, kept
For B1, the “fold pull-down efficiency against Chimp PRDM9 prey on the same Human bait” value was over 2 fold.
